Source: US20150231240A1, “ANTI-C16ORF54 ANTIBODIES AND METHODS OF USE THEREOF” (priority 2012, published 2015)

Assays:
human C16orf54 [1] = target: T1, human C16orf54 (human, UniProt Q6UWD8 1-224); assay: flow cytometry, 10 ug/ml antibody, D42M1-huC16orf54 cells
T1 construct: also called huC16orf54; hC16orf54
T1 sequence: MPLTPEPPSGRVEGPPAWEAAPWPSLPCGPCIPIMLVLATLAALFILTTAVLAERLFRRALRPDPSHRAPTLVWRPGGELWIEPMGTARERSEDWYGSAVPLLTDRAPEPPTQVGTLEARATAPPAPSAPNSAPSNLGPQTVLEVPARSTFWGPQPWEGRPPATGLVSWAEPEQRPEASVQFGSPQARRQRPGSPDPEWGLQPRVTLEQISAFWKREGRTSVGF
Outline: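 Sarcoma cells transfected with human or cyno C16orf54 were Fc-blocked, stained with antibody for 1 h at 4° C., then PE anti-mouse IgG Fcγ secondary 30 min at 4° C., with TO-PRO-3 viability dye. Value is live-cell PE median fluorescence divided by that of IgG isotype control.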

human C16orf54 [2] = target: T1, human C16orf54; assay: flow cytometry, CFPAC-1 pancreatic cancer cells (endogenous C16orf54), 3 repeats
[3] = target: T2, cynomolgus monkey C16orf54 (cynomolgus monkey (Macaca fascicularis), UniProt Q6UWD8 1-224 (human entry)); assay: flow cytometry titration, F279-cyno-C16orf54 cells
T2 construct: also called cyno C16orf54; cyno-C16orf54
T2 chain: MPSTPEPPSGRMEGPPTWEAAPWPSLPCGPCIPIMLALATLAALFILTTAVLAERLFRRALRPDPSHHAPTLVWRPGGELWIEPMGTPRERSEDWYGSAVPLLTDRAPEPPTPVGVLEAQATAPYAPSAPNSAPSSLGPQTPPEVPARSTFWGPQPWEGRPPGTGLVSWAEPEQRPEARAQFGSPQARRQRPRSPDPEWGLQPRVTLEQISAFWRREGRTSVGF
Protocol: Anti-C16orf54 antibodies which bound to human C16orf54 were tested for their binding to cells expressing human C16orf54 and cells expressing cyno C16orf54. […] Median fluorescence intensities for each primary antibody concentration were used to derive a flow EC50/Kd using the one site-specific binding with Hill slope model in Prism (GraphPad Prism® Software). Results are shown as flow EC50 in Table 35.

B1: R29-7-1C (antibody, V domains shown)
VH: DVQLQESGPGLVKPSQSLSLTCTVTGYSITSDYAWNWIRQFPGNKLEWMGYISYSGSIRYNPSLKSRISITRDTSKNQFFLQLNSVTTEDTATYYCAREKYDNYYYAMDYWGQGTSVTVSS
VL: DIVMSQSPSSLAVSVGEKVTLSCKSSQNLLYSTNQKNYLAWYQQKPGQSPKLLIYWASTRESGVPDRFTGSGSGTDFTLTISSVKAEDLAVYYCQQYYSYRTFGGGTKLEIK
notes: Murine monoclonal IgG2a from a hybridoma
Q: Which “Median fold change relative to IgG control” value (human C16orf54 [1]) does the source give for B1 here?
A: 205 fold

Q: What about the “Average MFI fold change relative to isotype control” value (human C16orf54 [2]) of the same binder?
A: 1.6 fold

Q: And the EC50 [3]?
A: 2.7 nM
